A short description of this data set: soluble on expression in E. coli; label from the status in PepcDB or PDB records.
Turning to “KIKRMECFDISHTMGNQTVASCVVFNKEGPLKSDYRRFNIEGITGGDDYAAMEQVLQKRYERDLEEDKIPDIIFIDGGKGQLNRALNVFQHLQVKWDKNRPHLIGVAKGVDRRAGQEVLIISKQDREIHLPDDSLALHLIQHIRDESHNHAISGHRKKRQKAF”, the “soluble on expression in E. coli” value was “not soluble”.

For the sequence “MKHLPQLEGVSVGLEGEAVSLFWGEIKEEERQEIYECAKALVPWRKGPFWVGDFLIDSEWVSAKKYALLEPHFDLCNKDVADIGCNNGYYMFRMWGQKPKSLTGFDPSPLCRTQFDFINHFIQAPIRFELLGVEHLEGYGKLFDVIFCLGVLYHRSDPIQTLKSLYKGLAKGGELLLDTLMIEGEEEVALTPKDRYAKMSNVYFIPTFKALSHWLHRAGFERVEKLEIAKTGLDEQRKTEWINSQSLEDFLDPCSHDRTIEGYPAPRRIYVKAYKGA”, the “soluble on expression in E. coli” value is listed as “not soluble”.

For the sequence “MGSDKIHHHHHHMVKMRALLSGYYGKGNGGDEALLATLLQMLPSHVTPVVLSGNPEETRDRYNVETYDRMAPLAVLQALRSSDALIWGGGSIIQDVTSTISPFYYGGMMALAQKMGLKTVAWAQGIGPLVRPQTRWLARQTFGNCTKVSVRDRASAALLSDWQIPCIIAPDPVWALESKPVPGLWDLPAPRVAVTLRSHPQLTETRLANLTRALVDFQKATQAFILLLPFQKSEDLSIAEAIQPHLKDVSQILCLEDPQLLKGVFRGVEMAIGMRLHSLIMAAAEGCRCFALSYDPKVNRLMEDLEMPGWDLASLPNDPNLISLTWMEHYANGDPLSPDQIQSLVDRALIHRELLSQAFI”, the “soluble on expression in E. coli” value was “not soluble”.

For the sequence “MGSDKIHHHHHHVSSLSFNFAPDFRPLAARMRPRSIAEYIGQAHLLGEGQPLRKALEAGRAHSMMLWGPPGTGKTTLAELIAQYSNAHVERISAVTSGVKEIRAAIEQAKAIAESRGQRTLLFVDEVHRFNKSQQDAFLPFIEDGTVIFIGATTENPSFEINNALLSRARVYLIKRLSNNEIAHIVTQALADTERGLGLRQLEMPESVLIKLAQLCDGDARKALNLLELMSDMVSDNDTFTLEMLVQVAGHQVAGFDKNGDQFYDLISAVHKSIRGSAPDAALYWYCRILEGGGDPLYVARRLLAIASEDVGNADPAAMTIALNAWDCFHRVGPAEGERAIAQAIVYLASAPKSNAVYTAFKAARALARETGQESVPHHLRNAPTQLMKEIGMGEGYRYAHDEPNAYASGENYFPESLKTAQFYFPTERGFEKRIKDKLIQLTQLDQVSENKRYD”, the “soluble on expression in E. coli” value was “not soluble”.

Turning to “MSIESSATPTTPNAEALQLNSTEVRILGCLIEKQATNPETYPLTLNALVIACNQKTSRDPVMNLTQGQVGQSLRALEGRGLTRLVMGSRADRWEHKVDKGLELVPAQVILTGLLLLRGPQTVSELLTRSNRMHDFEDSEQVVHQLERLIARGLATLVPRQSGQREDRYMHLIGDPEDLQD”, the “soluble on expression in E. coli” value is “soluble”.

Regarding “SGRKIGSIVMNANPFTLGHQYLIEQACEQCDWVHLFVVKAENKDFSYADRMAMIKAGSKHLLNLTIHSGSDYIISRATFPSYFIKDQQVVNQSHTALDLSIFRHSIAPALGITHRFVGSEPICTVTRHYNQAMRRWLEEAHDASAPIQVVEIERSQQASQPISASRVRYLLKQFGFAAIADLVPKTTYSYLCQHYAEH”, the “soluble on expression in E. coli” value is given as “not soluble”.

For “VRQKGIDIIFMLDISNSMLARDTAPDRLTHAKTELLQISRRLGDGRKALLLFAGTPVVQCPLTDDEEDFEILLDMAAPELITTQGTDYRRAFDAALKLTNSGGELSSNETVLVLASDGEDHGNDLGDIATAMKTRGVHLHVIGVGGVQPVPIPMQGGPKRDQQGKIVLTSFKPEPLASLIKTAKGKFYYSRPDAPVHDAVADDIAAEAAEA”, the “soluble on expression in E. coli” value is reported as “not soluble”.

Turning to “TMSSCVSSQPSSNRAAPQDELGGRGSSSSESQKPCEALRGLSSLSIHLGMESFIVVTECEPGCAVDLGLARDRPLEADGQEVPLDSSGSQARPHLSGRKLSLQERSQGGLAAGGSLDMNGRCICPSLPYSPVSSPQSSPRLPRRPTVESHHVSITGMQDCVQLNQYTLKDEIGKGSYGVVKLAYNENDNTYYAMKVLSKKKLIRQAGFPRRPPPRGTRPAPGGCIQPRGPIEQVYQEIAILKKLDHPNVVKLVEVLDDPNEDHLYMVFELVNQGPVMEVPTLKPLSEDQARFYFQDLIKGIEYLHYQKIIHRDIKPSNLLVGEDGHIKIADFGVSNEFKGSDALLSNTVGTPAFMAPESLSETRKIFSGKALDVWAMGVTLYCFVFGQCPFMDERIMCLHSKIKSQALEFPDQPDIAEDLKDLITRMLDKNPESRIVVPEIKLHPWVTRHGAEPLPSEDENCTLVEVTEEEVENSVKHIPSLATVILVKTMIRKRSFGNPFEGSRREERSLSAPGNLLTKKPTRECESLSELKGTKKKKGLDSMTSTVAAGWLDRRV”, the “soluble on expression in E. coli” value is listed as “soluble”.

With “MAELTETSPETPETTEAIRAVEAFLNALQNEDFDTVDAALGDDLVYENVGFSRIRGGRRTATLLRRMQGRVGFEVKIHRIGADGAAVLTERTDALIIGPLRVQFWVCGVFEVDDGRITLWRDYFDVYDMFKGLLRGLVALVVPSLKATL”, the “soluble on expression in E. coli” value is recorded as “soluble”.

Turning to “MGSDKIHHHHHHMSGDTCLCPASGAKPKISGFKGGGLGNKYVQLNVGGSLYYTTVRALTRHDTMLKAMFSGRMEVLTDKEGWILIDRCGKHFGTILNYLRDDTITLPQSRQEIQELMAEAKYYLIQGLVSTCQTALQDKKDSYQPVCNIPIITSLREEDRLIESSTKPVVKLLYNRSNNKYSYTSNSDDHLLKNIELFDKLSLRFNGRVLFIKDVIGDEICCWSFYGQGRKLAEVCCTSIVYATEKKQTKVEFPEARIYEETLNVLLYETPRVPDNSLLEATSRSRSQASPSEDEDTFELRDRVRRIHVKRYSTYDDRQLGHQSTHRD”, the “soluble on expression in E. coli” value is on record as “not soluble”.

For the sequence “MELPFSQACENNKDPILEVLKTAFSDCTRVLEVGSGTGQHAVYFASQLPNIHWQASDQKEYLPGVTARIKQEGVTNQPLPVEFDVFADAPGGTFNALFTANTCHIMPKEGVERLFEHLEGDLSSVERLCIYGPFNDNGHFTSDSNRGFHQSLQSRNSDMGIRDWQWITELANQQGFELKKIHPLPANNQLLEFQRLEHHHHHH”, the “soluble on expression in E. coli” value is on record as “soluble”.

For the sequence “MIFENRLALSAMAGVNNAEFCRKQKASLVILGGFNADRRALEAAEKAVKRGRKEFLFGIDGIEGEIKKLGRRKFAVNVRSSSLEGYLNVAELVAEFEGIIEINAHCRQPEFVEIGCGEWLLFNHERLVEIVSKTSRIAPTFVKIRGGHKLDYEKIARKLFDAGCLAIHVDAMIPGGGCDFSLIERISRIGNVIGNNSFVDIESGERIIMAGAKMASAARAVLRDENFFEKMLRSPLLSQPVELSCGRFRLEHHHHHH”, the “soluble on expression in E. coli” value is “soluble”.

With “MSLDTQSDYVVVGTGSAGAVVASRLSTDPATTVVALEAGPRDKNRFIGVPAAFSKLFRSEIDWDYLTEPQPELDGREIYWPRGKVLGGSSSMNAMMWVRGFASDYDEWAARAGPRWSYADVLGYFRRIENVTAAWHFVSGDDSGVTGPLHISRQRSPRSVTAAWLAAARECGFAAARPNSPRPEGFCETVVTQRRGARFSTADAYLKPAMRRKNLRVLTGATATRVVIDGDRAVGVEYQSDGQTRIVYARREVVLCAGAVNSPQLLMLSGIGDRDHLAEHDIDTVYHAPEVGCNLLDHLVTVLGFDVEKDSLFAAEKPGQLISYLLRRRGMLTSNVGEAYGFVRSRPELKLPDLELIFAPAPFYDEALVPPAGHGVVFGPILVAPQSRGQITLRSADPHAKPVIEPRYLSDLGGVDRAAMMAGLRICARIAQARPLRDLLGSIARPRNSTELDEATLELALATCSHTLYHPMGTCRMGSDEASVVDPQLRVRGVDGLRVADASVMPSTVRGHTHAPSVLIGEKAADLIRSEGHHHHHH”, the “soluble on expression in E. coli” value was “soluble”.

Take “MSGKNEADSKDTGWEQIKDKGKIVVATSGTLYPTSYHDTDSGSDKLTGYEVEVVREAAKRLGLKVEFKEMGIDGMLTAVNSGQVDAAANDIDVTKDREEKFAFSTPYKYSYGTAIVRKDDLSGIKTLKDLKGKKAAGAATTVYMEVARKYGAKEVIYDNATNEQYLKDVANGRTDVILNDYYLQTLALAAFPDLNITIHPDIKYMPNKQALVMKKSNAALQKKMNEALKEMSKDGSLTKLSKQFFNKADVSKKIDADVQDVDLLEHHHHHH”: the “soluble on expression in E. coli” value is given as “soluble”.

Regarding “MIIKRNDMAPSVKAGDAILFYRLSQTYKVEEAVVYEDSKTSITKVGRIIAQAGDEVDLTEQGELKINGHIQNEGLTFIKSREANYPYRIADNSYLILNDYYSQESENYLQDAIAKDAIKGTINTLIRLRNH”, the “soluble on expression in E. coli” value is “not soluble”.

With “MTQPLFLIGPRGCGKTTVGMALADSLNRRFVDTDQWLQSQLNMTVAEIVEREEWAGFRARETAALEAVTAPSTVIATGGGIILTEFNRHFMQNNGIVVYLCAPVSVLVNRLQAAPEEDLRPTLTGKPLSEEVQEVLEERDALYREVAHIIIDATNEPSQVISEIRSALAQTINC”, the “soluble on expression in E. coli” value was “soluble”.

Turning to “SSLLDGLASSPRAPLQSSKARMKKLPKKSQNEKYRLKYLRLRKAAKATVFENAAICDEIARLEEKFLKAKEERRYLLKKLLQLQALTEGEVQAAAPSHSSSLPLTYGVASSVGTIQGAGPISGPSTGAEEPFGKKTKKEKKEKGKENNKLEVLKKTCKKKKMAGGARKLVQPIALDPSGRPVFPIGLGGLTVYSLGEIITDRPGFHDESAIYPVGYCSTRIYASMKCPDQKCLYTCQIKDGGVQPQFEIVPEDDPQNAIVSSSADACHAELLRTISTTMGKLMPNLLPAGADFFGFSHPAIHNLIQSCPGARKCINYQWVKFDVCKPGDGQLPEGLPENDAAMSFEAFQRQIFDEDQNDPLLPGSLDLPELQPAAFVSSYQPMYLTHEPLVDTHLQHLKSPSQGSPIQSSD”, the “soluble on expression in E. coli” value is on record as “soluble”.

Consider “MHLELHQINGNDPLGTIIGERNYQLPIPLPYTMKTVKQIHSGIWHTVIRGYDQYNRPQIATFGKNYDGQLGTGDCENRDTPTPIKLPPEMLTFHAIQTGFFHTIATGLDKNGFPIVASCGYNSDGQLGCGDKDNKNTLIPIKLPENMKSVEMVATGVKHTVIVGKDINNKPVVATCGHNGYGQLGTGDEENRLCLTPIGIPEDITSVDYVGAGAYHTVICGRNIKNQPIITLCGCNSDGELGFAPQKIAKKSSLMTNPAMFFPPRQDKSAINNLMKISKFSPCNLL”, for which the “soluble on expression in E. coli” value is given as “not soluble”.

Regarding “STSPLSDLLNLDLSDTKKIIAEYIWIGGSGMDIRSKARTLPGPVSNPTKLPKWNYDGSSTDQAAGDDSEVILYPQAIFKDPFRKGNNILVMCDAYRPAGDPIPTNNRHKAVKIFDHPNVKAEEPWFGIEQGYTLLKKDVKWPLGWPLGGFPGPQGPYYCAVGADKAFGRDIVDAHYKACLYSGLSIGGANGEVMPGQWEFQISPTVGIGAGGQLWVARYILERITEICGVIVSFDPKPIQGDWNGAAAHTNFSTKSMRKDGGLDLIKEAIKKLEVKHKQHIAAYGEGNERRLTGKHETADINTFSWGVADRGASVRVGRDTEKEGKGYFEDRRPSSNMDPYLVTSMIAETTIL”, the “soluble on expression in E. coli” value is on record as “soluble”.

As for “MGSDKIHHHHHHMPPVWTLPRLYQHFQGAIDLELWTIPYYLTVLYSIKDPTTVPYRLIQAAVYQEMLHAQLVSNIANAYGYSPTLSAPEYVGTAVPHIDFDLDTPNPTSIFTPYSAELGPLDLTRVNTMCLIEYPEWRTQREPDLADDVTDYGSIGEFYDALRVGMEQLRGHVRGNQKQMDEFGPFYQNSPPLTVTESGDAGFLQALTLVDIIVDQGEGQTQPVETIPTEFQNTADGFQDAWPHFQRFDFIRRMPNWPGVYTGVTDPPAGSPGAEAQARLIADFAGFLDILNGMFSGGGAPPAFGVQMAKLGGDILSCWKLGAVPRYS”, the “soluble on expression in E. coli” value is given as “not soluble”.

On to “LITPQYKSEAKLYILSKETTLTSLADLQIGSQLTQDYKVLVSSRPVMEGVINHLKLDYSYKELAGKLTVENPQNTRILSLTVRDENPYMAKQIVDDIANTASDYIGEIMEMVPPKMIEDGVVASEPYSPSIKRN”, for which the “soluble on expression in E. coli” value was “not soluble”.

These data come from the DeepSol protein solubility set.
